Patent US20120184713A1, “Compositions and Methods for Modulation of Bone Density and Biomineralization” (priority 2011, published 2012)

Target: T1, FAM20C (Mus musculus, UniProt Q5MJS3)
T1 construct: His (from vector pcDNA3.1/V5-His B) (C); made in house; host or cells: HEK293T
T1 sequence (Q5MJS3 88-579): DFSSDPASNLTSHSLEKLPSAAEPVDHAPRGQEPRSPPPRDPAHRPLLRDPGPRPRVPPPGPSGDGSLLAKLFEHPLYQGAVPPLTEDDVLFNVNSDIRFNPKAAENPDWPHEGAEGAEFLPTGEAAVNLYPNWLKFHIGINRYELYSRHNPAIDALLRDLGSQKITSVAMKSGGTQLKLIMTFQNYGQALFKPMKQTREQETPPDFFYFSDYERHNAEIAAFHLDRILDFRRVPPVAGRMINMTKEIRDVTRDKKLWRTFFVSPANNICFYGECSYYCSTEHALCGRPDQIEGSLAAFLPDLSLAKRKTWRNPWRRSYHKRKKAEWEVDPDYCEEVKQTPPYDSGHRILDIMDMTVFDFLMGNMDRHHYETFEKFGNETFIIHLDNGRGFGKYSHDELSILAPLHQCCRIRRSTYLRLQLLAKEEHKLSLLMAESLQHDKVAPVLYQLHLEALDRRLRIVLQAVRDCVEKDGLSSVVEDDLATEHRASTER
Assay: FAM20C in vitro kinase assay with dephosphorylated alpha-Casein as substrate
Type: biochemical
Conditions: Casein as model substrate; 5 minute assays
Procedure: For FAM20C:V5 purification, pcDNA-FAM20C:V5 was transfected to HEK293T cells, and FAM20C:V5 was purified from conditioned media using anti-V5 agarose beads (Sigma). Condition media were incubated with anti-V5 affinity gel (Sigma) overnight at 4° C. Agarose beads were collected by centrifugation, and washed 5 times with TBS. Proteins were eluted using V5 peptides in TBS (Sigma, final concentration: 100 μg/ml). For purification of OPN:FLAG, BSP:FLAG, DMP1:FLAG, DSPP:FLAG and MEPE:FLAG, condition media were incubated with anti-FLAG M2 affinity gel (Sigma) overnight at 4° C. Agarose beads were collected by centrifugation, and washed 5 times with TBS. Purified quantification was performed on gels stained by SYPRO Ruby Protein Gel Stain (Invitrogen), using BSA as a standard.
FAM20C kinase assays were performed in 10 μl reactions, with 500 μM ATP, including 3 μCi (0.05 μM) of [gamma-^32P]ATP (6000 Ci/mmol, PerkinElmer), 50 mM Tris (pH 7.0), 10 mM MnCl2, 0.1% BSA, purified FAM20C:V5 (5 ng, […]), and dephosphorylated alpha-Casein (0.1 μg, Sigma). […] Radioactivity within the gels was detected using a Molecular Dynamics Phosphor Imager. For quantitation of gamma-^32P incorporation, bands were cut out of the gels using the Phosphor Imager pictures as a reference, and then counted by liquid scintillation using a Beckman Coulter LC6500. […]

- V.: 0.7 μM ATP/min/mg FAM20C
B1: FAM20C: affinity purified V5-tagged mouse FAM20C, Golgi-localized protein kinase (protein)
chain: DFSSDPASNLTSHSLEKLPSAAEPVDHAPRGQEPRSPPPRDPAHRPLLRDPGPRPRVPPPGPSGDGSLLAKLFEHPLYQGAVPPLTEDDVLFNVNSDIRFNPKAAENPDWPHEGAEGAEFLPTGEAAVNLYPNWLKFHIGINRYELYSRHNPAIDALLRDLGSQKITSVAMKSGGTQLKLIMTFQNYGQALFKPMKQTREQETPPDFFYFSDYERHNAEIAAFHLDRILDFRRVPPVAGRMINMTKEIRDVTRDKKLWRTFFVSPANNICFYGECSYYCSTEHALCGRPDQIEGSLAAFLPDLSLAKRKTWRNPWRRSYHKRKKAEWEVDPDYCEEVKQTPPYDSGHRILDIMDMTVFDFLMGNMDRHHYETFEKFGNETFIIHLDNGRGFGKYSHDELSILAPLHQCCRIRRSTYLRLQLLAKEEHKLSLLMAESLQHDKVAPVLYQLHLEALDRRLRIVLQAVRDCVEKDGLSSVVEDDLATEHRASTER
modifications: left off: small tags and cut ends
- turnover number (kcat): 52 per minute
